Data reported in patent publication US20260109962.

Molecular target: T1, 33-mer peptide from alpha-gliadin
T1 chain: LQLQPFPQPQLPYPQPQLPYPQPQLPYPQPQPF

B1: Recombinant E40 (histidine-tagged endopeptidase 40 of Actinoallomurus A8, mature form, produced in S. lividans TK24/pIJ86/e40) (protein)
chain: AAPSGLSPANLQSAYKLPSSTAGSGQTVAIVDAYDAPTAEADLNVYRSQFGLGACTTANGCFKKVDQNGGTSYPRKDGGWAQEISLDLDMVSAVCPNCKIVLVEAKTNSFANLGTAENTAASLANVISNSYGGSDASDASYGSYYNHPGKAITVSSGDAGYGVEYPASSHYVTAVGGTSLRTASTSRGWSETAWSGAGSGCSAYNTALSGQSGLTGCSRRAVADVSAVADPATGVAVYDSTAYQGQSGWMVFGGTSVAAPIIGGVYGLAANAASIDNNYPYAHTSSLFDVTSGSNGTCTTTKWCTAGTGWDGPTGLGTPNGTGAFGHHHHHH
For B1, the “33-mer gliadin peptide degradation monitored by LC-MS/MS (1:48 enzyme vs substrate molar ratio, pH 5, 37 C): time to complete disappearance of the peptide” value was “the native 33-mer peptide signal completely disappeared after only 15 minutes”, the “33-mer gliadin peptide degradation monitored by LC-MS/MS (1:96 molar ratio): time to complete degradation” value was “in that case complete 33-mer degradation took 30 minutes (not shown)” and the “cleavage sites from MS/MS spectra of the digestion products” value was “E40 cleaving site occurs between F-P and Q-L residues of gliadin, leading to short peptides lacking of T-cell stimulatory capacity”.
